# Assay results from patent US7851592B2, “Compositions and methods for inhibiting G2 cell cycle arrest and sensitizing cells to DNA damaging agents” (CanBas Co. Ltd., priority 1999, dated 2010).
# System: histone H1 kinase activity
# Assay: Histone H1 kinase assay on lysates of treated Jurkat cells
# Type: cell-based, human
# Conditions: FIG. 2B; bleomycin 10 μg/ml or hydroxyurea 100 μg/ml; 6 hr
# Experimental: Histone H1 kinase assay. Ten million Jurkat cells were treated with hydroxyurea (100 μg/ml), bleomycin (10 μg/ml), or colchicine (5 μg/ml) with or without addition of TAT-S216A, TAT-S216 or TAT-Control (10 μM) for 6 hr. The cells were washed in cold PBS and lysed at 4° C. in 1 ml of buffer A (50 mM Tris pH 8, 2 mM DTT, 5 mM EDTA, 100 mM NaCl, 0.5% NP40, 20 mM Na3V04, 50 mM NaF, 4 μM Okadaic acid, 5 μg/ml aprotinin, 5 μg/ml pepstatin A and 5 μg/ml leupeptin.). Twenty microliter of p13^suc1 agarose beads (Upstate Biotechnology., Saranac, N.Y.) were added to the cleared lysates, incubated for 4 hr at 4° C., and washed five times with buffer A without 5 mM EDTA, 20 mM Na3V04, 50 mM NaF, 4 μM Okadaic acid. Histone HI kinase activity on the beads were analyzed by using Cdc2 kinase assay kit (Upstate Biotechnology) with [γ-^32P] ATP, followed by 12% SDS-PAGE electrophoresis, and autoradiographed to detect the phosphorylated Histone H1.
# The cell cycle status of the cells treated with TAT-S216A or TAT-S216 upon the DNA damage-induced G2 arrest was analyzed by FACS analysis. Histone H1 kinase activities of theses cells were simultaneously monitored. […] Results are shown in FIG. 2: abrogation of DNA damage-induced G2 arrest by TAT-S216A and TAT-S216 peptides. FIG. 2A, FACS analysis of Jurkat cells treated with bleomycin and peptides. Cells were treated with bleomycin (10 μg/ml) with or without peptides (10 μM) for 20 hr. B, histone H1 kinase analysis. Cell lysates were prepared from the cells treated with the indicated reagent for 6 hr. Concentrations used were: hydroxyurea (HU), 100 μg/ml; bleomycin (Bleo), 10 μg/ml; colchicine, 5 μg/ml; TAT-S216A and TAT-S216, 10 μM. C, FACS analysis of colchicine -and peptide-treated cells. Jurkat cells were treated with colchicine (5 μg/ml) with or without peptide (10 μM) for 20 hr.
row,Compound,histone H1 kinase activity on treatment with drug alone
1,"NC(=O)NO [hydroxyurea, Hydroxyurea]",decreased

# Target: human Chk2 kinase (Homo sapiens, UniProt O96017)
# Assay: In vitro phosphorylation (kination) of membrane-immobilized peptides by human Chk2 kinase (Gst-Chk2)
# Type: biochemical
# Parameters: key to phosphorylation signal by human Chk2 kinase (graded) / in vitro phosphorylation by human Chk2 kinase (graded signal): a “+++” indicates the peptide was relatively highly phosphorylated; a “++” indicates the peptide was relatively less phosphorylated; a “+” indicates the peptide was detectably significantly phosphorylated over negative control; no indication indicates that a peptide was not significantly phosphorylated over negative control
# Conditions: peptide on membrane; Gst-Chk2
# Experimental: Exemplary peptides were directly synthesized (immobilized) on a membrane and contacted with human Chk2 kinase. Specifically, oligo-peptides with all sequences predicted by the 3-dimensional model were directly synthesized on a membrane by using an auto-spot-peptide-synthesizer, Model ASP-22 2 (ABiMED, Germany). The amount of peptide was about 0.1 micro-mol/cm^2.
# The membrane was incubated with 2% Gly-Gly in PBS for 2 hours (hr) at room temperature (RT). Then, they were washed three times with 0.1% Tween-P BS™. The “kination,” or “phosphorylation,” reaction was performed with a recombinant fusion protein Gst-Chk2 at a concentration of about 5 μg in 4 ml reaction buffer, 1 mM MgCl2, 2% Gly-Gly and γ-^33P-ATP in PBS at RT for 1 hr. After the reaction, the membrane was washed 5 times with RIPA (1% SDS, 1% NP-40, 100 mM NaCl) and analyzed with a Bass 2500™ image analyzer (Fuji, Japan).
# The following Table 1 is a complete list of tested peptides and results of the in vitro phosphorylation by human Chk2 kinase assay.
# The following example describes studies which identified exemplary G2 checkpoint-abrogating peptides of the invention. The following peptides of the invention were synthesized directly on membranes and tested in in vitro phosphorylation (“kination” assays, as described above.
# These peptides were tested in in vitro kination reactions. The oligopeptides were used as phosphorylation substrates; added kinases are involved in the cell cycle G2 checkpoint. Thus, a substance that inhibits the kination reaction can be a cell cycle 62 checkpoint abrogator. For the detection of the phosphorylation status of substrates in this screening method, isotope-labeled ATP and anti-phospho-peptides antibody can be used.
# human Chk2 kinase, sequence (O96017 whole entry): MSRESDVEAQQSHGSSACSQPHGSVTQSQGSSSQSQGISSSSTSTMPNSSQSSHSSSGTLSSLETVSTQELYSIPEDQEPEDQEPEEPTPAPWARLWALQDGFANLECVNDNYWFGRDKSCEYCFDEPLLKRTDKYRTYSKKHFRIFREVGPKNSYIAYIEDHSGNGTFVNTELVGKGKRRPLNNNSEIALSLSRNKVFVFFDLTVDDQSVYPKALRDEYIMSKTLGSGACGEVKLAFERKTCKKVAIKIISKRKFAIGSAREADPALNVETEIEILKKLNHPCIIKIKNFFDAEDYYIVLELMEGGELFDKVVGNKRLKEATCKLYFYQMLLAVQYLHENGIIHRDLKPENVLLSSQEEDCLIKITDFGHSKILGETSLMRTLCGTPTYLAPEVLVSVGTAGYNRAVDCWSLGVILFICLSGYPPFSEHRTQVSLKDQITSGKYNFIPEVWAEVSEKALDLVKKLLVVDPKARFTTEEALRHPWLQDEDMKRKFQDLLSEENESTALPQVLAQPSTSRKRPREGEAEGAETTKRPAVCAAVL
row,Compound,phosphorylation by human Chk2 kinase (in words)
1,L Y R S P S Y Y E N L (LYRSPSYYENL),best phosphorylation substrates
2,W Y T S P S Y F E N L (WYTSPSYFENL),best phosphorylation substrates

# Same assay, conditions: peptide on membrane; Gst-Chk2; γ-33P-ATP; RT 1 hr
row,Compound,phosphorylation signal by human Chk2 kinase (graded)
1,LYRSPSAMPENL,+
2,RYSLPPELSNM,+

# Same assay, conditions: peptide synthesized on membrane (about 0.1 micro-mol/cm^2); Gst-Chk2 about 5 μg in 4 ml reaction buffer, γ-33P-ATP, RT 1 hr; image analyzer signal graded −, +, ++, +++
row,Compound,in vitro phosphorylation by human Chk2 kinase (graded signal)
1,LFTSPSYFENL,+
2,LYHSPSYPENL,+
3,LYRSPSHPENL,+
4,LYRSPSMPENL,+
5,LYRSPSNPENL,+
6,LYRSPSNWENL,+
7,LYRSPSNYENL,+
8,LYRSPSYFENL,+
9,LYRSPSYYENL,+
10,LYSSPSFFENL,+
11,LYSSPSFPENL,+
12,LYSSPSFWENL,+
13,LYSSPSFYENL,+
14,LYSSPSHPENL,++
15,LYSSPSHYENL,++
16,LYTSPSFPENL,++
17,LYTSPSHFENL,+
18,LYTSPSHPENL,+
19,LYTSPSHYENL,+
20,LYTSPSMFENL,++
21,LYTSPSMWENL,++
22,LYTSPSMYENL,++
23,LYTSPSNPENL,+
24,LYTSPSNWENL,+
25,LYTSPSYFENL,++
26,LYTSPSYWENL,++
27,RYSLPPELSNM,+

# Continued, values first:
row,in vitro phosphorylation by human Chk2 kinase (graded signal),Compound
1,+,LFTSPSYPENL
2,+,LFTSPSYWENL
3,+++,LFTSPSYYENL
4,+,LYHSPSYFENL
5,+,LYHSPSYWENL
6,+++,LYHSPSYYENL
7,+,LYRSPSHFENL
8,+,LYRSPSHWENL
9,+,LYRSPSHYENL
10,+,LYRSPSYWENL
11,++,LYSSPSHFENL
12,++,LYSSPSHWENL
13,+,LYSSPSMFENL
14,+,LYSSPSMPENL
15,+,LYSSPSMWENL
16,+,LYSSPSMYENL

row,in vitro phosphorylation by human Chk2 kinase (graded signal),Compound
1,+,LYSSPSQPENL
2,+,LYSSPSQWENL
3,+,LYSSPSYFENL
4,+,LYSSPSYPENL
5,+,LYSSPSYWENL
6,+,LYSSPSYYENL
7,++,LYTSPSFFENL
8,++,LYTSPSFWENL
9,++,LYTSPSFYENL
10,+,LYTSPSHWENL
11,++,LYTSPSMPENL
12,+,LYTSPSNFENL
13,+,LYTSPSNYENL
14,++,LYTSPSYPENL
15,+++,LYTSPSYYENL

# Same assay, conditions: peptide synthesized on membrane, about 0.1 micro-mol/cm^2; Gst-Chk2 about 5 μg in 4 ml, γ-33P-ATP, RT 1 hr; image analyzer signal graded −, +, ++, +++
row,Compound,in vitro phosphorylation by human Chk2 kinase (graded signal)
1,1125 (WYRSPSMWENL) [compound 1125],++
2,1128 (WYRSPSFFENL) [compound 1128],++
3,1129 (WYRSPSFYENL) [compound 1129],+++
4,1130 (WYRSPSFWENL) [compound 1130],++
5,1134 (WYRSPSYYENL) [compound 1134],++
6,1212 (WYTSPSYPENL) [compound 1212],++

# More lines, now with the values ahead:
row,in vitro phosphorylation by human Chk2 kinase (graded signal),Compound
1,++,1124 (WYRSPSMYENL) [compound 1124]
2,++,1127 (WYRSPSFPENL) [compound 1127]
3,++,1132 (WYRSPSYPENL) [compound 1132]
